The source of these data is publication PMC2603141 (Virology, 2008).

This series deals with the molecule itself. The experiment in a line: reducing and non-reducing SDS-PAGE.

B1: PIV 5 HN stalk region, HN(stalk) (domain or fragment)
chain: SPSSGLGSITDLLNNILSVANQIIYNSAVALPLQLDTLESTLLTAIKSLQTSDKLEQNCSWSAAL
modifications: also: inter-chain disulfide, covalent dimer
For the protein B1, the “stoichiometry N” value turned out to be 2.
